Common to all, as to assay: cell-based or functional assay
Assay [1] addresses hGLP-1R (Homo sapiens, UniProt P43220).
For assay [2], the target named is human glucagon receptor (human) (UniProt P47871).
Assay [3] addresses T1, human GIP receptor (human) (UniProt P48546).
T1 sequence (looked up): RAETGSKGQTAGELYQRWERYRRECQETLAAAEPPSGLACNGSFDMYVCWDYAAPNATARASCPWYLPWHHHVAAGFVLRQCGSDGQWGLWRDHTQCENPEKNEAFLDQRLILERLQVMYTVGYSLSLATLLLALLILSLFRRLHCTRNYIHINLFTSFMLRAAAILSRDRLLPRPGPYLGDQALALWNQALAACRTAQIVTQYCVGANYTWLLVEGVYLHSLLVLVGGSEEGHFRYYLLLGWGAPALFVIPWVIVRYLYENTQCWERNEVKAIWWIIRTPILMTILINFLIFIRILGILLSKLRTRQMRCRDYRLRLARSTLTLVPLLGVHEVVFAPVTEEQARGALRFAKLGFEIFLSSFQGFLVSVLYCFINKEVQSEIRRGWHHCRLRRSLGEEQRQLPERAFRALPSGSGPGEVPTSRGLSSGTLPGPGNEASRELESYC

Residue numbers refer to the chain shown, from its start.

Sequence of hGLP-1R (P43220 24-463): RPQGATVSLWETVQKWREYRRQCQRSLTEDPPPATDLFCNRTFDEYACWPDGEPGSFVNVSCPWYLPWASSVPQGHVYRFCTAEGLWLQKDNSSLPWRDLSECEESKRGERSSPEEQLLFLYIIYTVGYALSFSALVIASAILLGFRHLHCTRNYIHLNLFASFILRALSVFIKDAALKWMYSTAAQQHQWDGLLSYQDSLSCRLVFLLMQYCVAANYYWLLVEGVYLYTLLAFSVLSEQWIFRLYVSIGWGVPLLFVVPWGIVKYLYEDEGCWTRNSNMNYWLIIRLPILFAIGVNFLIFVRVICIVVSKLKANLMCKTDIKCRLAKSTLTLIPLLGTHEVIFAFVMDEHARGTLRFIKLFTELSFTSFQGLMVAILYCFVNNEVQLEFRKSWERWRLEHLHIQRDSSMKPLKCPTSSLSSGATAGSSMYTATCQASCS
Sequence of human glucagon receptor (human) (P47871 26-477): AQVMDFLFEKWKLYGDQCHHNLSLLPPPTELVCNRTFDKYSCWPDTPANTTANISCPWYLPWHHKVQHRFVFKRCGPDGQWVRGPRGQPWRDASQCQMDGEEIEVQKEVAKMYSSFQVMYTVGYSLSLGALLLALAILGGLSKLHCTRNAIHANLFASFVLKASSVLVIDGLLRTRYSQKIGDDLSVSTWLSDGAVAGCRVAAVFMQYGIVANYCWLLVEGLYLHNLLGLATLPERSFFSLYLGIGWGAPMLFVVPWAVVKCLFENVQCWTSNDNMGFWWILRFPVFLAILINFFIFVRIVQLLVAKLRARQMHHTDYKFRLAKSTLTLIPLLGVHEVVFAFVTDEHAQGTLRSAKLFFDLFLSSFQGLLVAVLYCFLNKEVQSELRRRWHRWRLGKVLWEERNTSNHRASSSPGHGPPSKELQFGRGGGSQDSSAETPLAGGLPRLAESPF

B1: Example 901 (peptide)
chain: YXQGTFTSDXSKXLDKKAQXAFIEYLIEXGPSSGAPPPSGSE
modifications: synthetic construct; SITE 2: note = 2-Aminoisobutyric Acid; SITE 10: note = 3-(4-Pyridyl)-L-alanine; SITE 13: note = alpha-methyl-leucine; SITE 17: note = Lysine is chemically modified through conjugation of the epsilon-amino group of the Lysine side chain with (2-[2-(2-Amino-ethoxy)-ethoxy]-acetyl)
Regarding B1, the Relative cAMP EC50 in assay [1] worked out at 1.26 nM; in assay [2] it was 9.09 nM; in assay [3], 0.17 nM. For the same molecule, the figures for the cAMP Rel EC50 (1% HSA) in assay [1], in assay [2] and in assay [3] were 193 nM, 1150 nM and 34 nM, respectively.

B2: Example 904 (peptide)
chain: B1 chain
modifications: synthetic construct; SITE 2: note = 2-Aminoisobutyric Acid; SITE 10: note = 3-(4-Pyridyl)-L-alanine; SITE 13: note = alpha-methyl-leucine; SITE 17: note = Lysine is chemically modified through conjugation of the epsilon-amino group of the Lysine side chain with (gamma-Glu)2-CO-(CH2)16-CO2H; SITE 20:
For the molecule B2, the values for the Relative cAMP EC50 in assay [1], in assay [2] and in assay [3] were 1.94 nM, 9.88 nM and 0.194 nM, respectively. Moreover, the values for the cAMP Rel EC50 (1% HSA) in assay [1], in assay [2] and in assay [3] were 198 nM, 1330 nM and 15 nM, respectively.

B3: Example 76 (peptide)
chain: YXQGTFTSDFSXXLDKKAQXAFIEYLLAGGPSSGAPPPSGS
modifications: synthetic construct; SITE 2: note = 2-Aminoisobutyric Acid; SITE 12: note = L-ornithine; SITE 13: note = alpha-methyl-leucine; SITE 17: note = Lysine is chemically modified through conjugation of the epsilon-amino group of the Lysine side chain with (2-[2-(2-Amino-ethoxy)-ethoxy]-acetyl)-(gamma-Glu)
As to B3, the Relative cAMP EC50 is 2.25 nM in assay [1], 11.1 nM in assay [2] and 0.196 nM in assay [3]. Moreover, the values for the cAMP Rel EC50, nM (in the presence of 1% HSA) in assay [1], in assay [2] and in assay [3] were 436 nM, 2240 nM and 45.5 nM, respectively.

B4: Example 800 (peptide)
chain: B3 chain with L27I, A28E, G29X
modifications: synthetic construct; SITE 2: note = 2-Aminoisobutyric Acid; SITE 12: note = (S)-2,3-diaminopropanoic acid; SITE 13: note = alpha-methyl-leucine; SITE 17: note = Lysine is chemically modified through conjugation of the epsilon-amino group of the Lysine side chain with (2-[2-(2-Amino-ethoxy)-ethoxy]-a)
With B4, the Relative cAMP EC50 came out at 0.486 nM in assay [1], 21 nM in assay [2] and 0.283 nM in assay [3]. The cAMP Rel EC50 (1% HSA) in assay [1] came out at 164 nM; in assay [2], 2500 nM; in assay [3], 40.2 nM.

B5: Example 862 (SEQ ID NO: 868) (peptide)
chain: B3 chain with X12Q, L27I, A28E, G29X
modifications: not fully specified; synthetic construct; SITE 2: note = 2-Aminoisobutyric Acid; SITE 13: note = alpha-methyl-leucine; SITE 17: note = Lysine is chemically modified through conjugation of the epsilon-amino group of the Lysine side chain with (gamma-Glu)3-CO-(CH2)16-CO2H; SITE 20: note = 3-(4-Pyridyl)-L-alanine; SITE 29:
On to B5, for which the cAMP Rel EC50 in assay [1] worked out at 201 nM; in assay [2], 1110 nM; in assay [3], 12.4 nM.

B6: Example 823 (peptide)
chain: B3 chain with F10X, X12Q, A28E, G29A, S41T
modifications: synthetic construct; SITE 2: note = 2-Aminoisobutyric Acid; SITE 10: note = 3-(4-Pyridyl)-L-alanine; SITE 13: note = alpha-methyl-leucine; SITE 17: note = Lysine is chemically modified through conjugation of the epsilon-amino group of the Lysine side chain with (2-[2-(2-Amino-ethoxy)-ethoxy]-acetyl)
Consider B6, for which the figures for the Relative cAMP EC50 in assay [1], in assay [2] and in assay [3] were 2.96 nM, 7.75 nM and 0.171 nM, respectively. Also, the cAMP Rel EC50 (1% HSA) in assay [1] was 421 nM; in assay [2], 1410 nM; in assay [3] it was 25.6 nM.

B7: Example 883 (SEQ ID NO: 889) (peptide)
chain: B3 chain with F10X, X12Q, L27I, S41E
modifications: synthetic construct; SITE 2: note = 2-Aminoisobutyric Acid; SITE 10: note = 3-(4-Pyridyl)-L-alanine; SITE 13: note = alpha-methyl-leucine; SITE 17: note = Lysine is chemically modified through conjugation of the epsilon-amino group of the Lysine side chain with (gamma-Glu)2-CO-(CH2)16-CO2H; SITE 20:
On to B7, for which the figures for the cAMP Rel EC50 in assay [1], in assay [2] and in assay [3] were 120 nM, 578 nM and 9.41 nM, respectively.

B8: Example 801 (peptide)
chain: B3 chain with F10X, X12K, L27I, A28E, G29X
modifications: synthetic construct; SITE 2: note = 2-Aminoisobutyric Acid; SITE 10: note = 3-(4-Pyridyl)-L-alanine; SITE 13: note = alpha-methyl-leucine; SITE 17: note = Lysine is chemically modified through conjugation of the epsilon-amino group of the Lysine side chain with (2-[2-(2-Amino-ethoxy)-ethoxy]-acetyl)
On to B8, for which the figures for the Relative cAMP EC50 in assay [1], in assay [2] and in assay [3] were 0.938 nM, 5.51 nM and 0.147 nM, respectively. The cAMP Rel EC50 (1% HSA) came to 133 nM in assay [1], 1200 nM in assay [2] and 18.1 nM in assay [3].

B9: Example 875 (SEQ ID NO: 881) (peptide)
chain: B3 chain with X12Q, L27I
modifications: synthetic construct; SITE 2: note = 2-Aminoisobutyric Acid; SITE 13: note = alpha-methyl-leucine; SITE 17: note = Lysine is chemically modified through conjugation of the epsilon-amino group of the Lysine side chain with (2-[2-(2-Amino-ethoxy)-ethoxy]-acetyl)-(gamma-Glu)-CO-(CH2) 16-CO2H; SITE 20: n
For the molecule B9, the cAMP Rel EC50 in assay [1] was determined as 78.6 nM; in assay [2] it was 689 nM; in assay [3] it was 13.8 nM.

B10: Example 907 (peptide)
chain: B3 chain with F10X, X12K, L27I, A28E, G29X
modifications: synthetic construct; SITE 2: note = 2-Aminoisobutyric Acid; SITE 10: note = 3-(4-Pyridyl)-L-alanine; SITE 13: note = alpha-methyl-leucine; SITE 17: note = Lysine is chemically modified through conjugation of the epsilon-amino group of the Lysine side chain with (gamma-Glu)2-CO-(CH2)16-CO2H; SITE 20:
With B10, the figures for the Relative cAMP EC50 in assay [1], in assay [2] and in assay [3] were 1.15 nM, 5.79 nM and 0.103 nM, respectively. Besides, the results for the cAMP Rel EC50 (1% HSA) in assay [1], in assay [2] and in assay [3] were 123 nM, 1210 nM and 8.86 nM, respectively.

B11: Example 876 (SEQ ID NO: 882) (peptide)
chain: B3 chain with X12Q, L27I
modifications: not fully specified; synthetic construct; SITE 2: note = 2-Aminoisobutyric Acid; SITE 13: note = alpha-methyl-leucine; SITE 17: note = Lysine is chemically modified through conjugation of the epsilon-amino group of the Lysine side chain with (gamma-Glu)2-CO-(CH2)16-CO2H; SITE 20: note = 3-(4-Pyridyl)-L-alanine; SITE 41:
Take B11: the cAMP Rel EC50 in assay [1] was determined as 70 nM; in assay [2], 940 nM; in assay [3], 7.94 nM.

B12: Example 804 (peptide)
chain: B3 chain with L27I, A28E, G29X, G30S
modifications: synthetic construct; SITE 2: note = 2-Aminoisobutyric Acid; SITE 12: note = L-ornithine; SITE 13: note = alpha-methyl-leucine; SITE 17: note = Lysine is chemically modified through conjugation of the epsilon-amino group of the Lysine side chain with (2-[2-(2-Amino-ethoxy)-ethoxy]-acetyl)-(gamma-Glu)
Take B12: the Relative cAMP EC50 in assay [1] was found to be 0.915 nM; in assay [2] it was 11.5 nM; in assay [3], 0.0751 nM. Also, the cAMP Rel EC50 (1% HSA) in assay [1] came to 161 nM; in assay [2], 2310 nM; in assay [3], 17.6 nM.

These data come from patent US20240270821A1, “GIP/GLP1/GCG TRI-RECEPTOR AGONISTS AND USES THEREOF” (priority 2023, published 2024).
